In publication PMC8833744, “Strategic Decoy Peptides Interfere with MSI1/AGO2 Interaction to Elicit Tumor Suppression Effects” (Cancers, 2022):

Molecular target: recombinant His-tagged AGO2 (UniProt Q9UKV8)
Test: SPR; Biacore T200; His-AGO2 immobilised on a CM5 chip by amine coupling (~7000 RU); peptides 20 to 1280 nM in HBS-P (10 mM HEPES, 150 mM NaCl, 0.005% T20, pH 7.4), 30 µL/min; Langmuir 1:1 model

recombinant His-tagged AGO2, sequence (Q9UKV8 whole entry): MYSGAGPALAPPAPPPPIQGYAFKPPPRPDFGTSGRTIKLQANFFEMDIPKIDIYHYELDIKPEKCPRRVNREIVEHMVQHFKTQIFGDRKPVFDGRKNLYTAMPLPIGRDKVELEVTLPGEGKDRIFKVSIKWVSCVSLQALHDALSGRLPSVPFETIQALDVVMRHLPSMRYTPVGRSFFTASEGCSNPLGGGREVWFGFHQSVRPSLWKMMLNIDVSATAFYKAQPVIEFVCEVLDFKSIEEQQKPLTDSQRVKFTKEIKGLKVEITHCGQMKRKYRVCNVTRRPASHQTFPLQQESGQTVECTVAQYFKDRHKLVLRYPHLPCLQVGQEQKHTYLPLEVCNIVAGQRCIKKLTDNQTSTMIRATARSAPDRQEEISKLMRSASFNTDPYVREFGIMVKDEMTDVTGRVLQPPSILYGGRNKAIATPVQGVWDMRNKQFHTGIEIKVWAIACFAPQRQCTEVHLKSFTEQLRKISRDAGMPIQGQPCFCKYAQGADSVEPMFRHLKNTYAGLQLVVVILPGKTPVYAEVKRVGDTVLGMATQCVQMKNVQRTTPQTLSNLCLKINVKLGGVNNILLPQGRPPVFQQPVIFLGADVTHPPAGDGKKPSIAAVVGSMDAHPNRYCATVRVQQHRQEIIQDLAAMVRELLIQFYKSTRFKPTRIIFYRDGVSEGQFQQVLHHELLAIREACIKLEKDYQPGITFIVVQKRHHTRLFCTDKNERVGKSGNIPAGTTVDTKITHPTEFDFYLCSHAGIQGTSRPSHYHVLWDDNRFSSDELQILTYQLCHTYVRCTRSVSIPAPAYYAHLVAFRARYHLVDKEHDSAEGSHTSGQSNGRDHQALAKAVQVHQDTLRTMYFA

Kd: 107 µM
Substance: negative control peptide (CP) as used in the SPR
